The first assay deals with Large subunit-rSCFV5 fusion protein. The assay can be described thus: cell-based or functional assay.
Sequence of Large subunit-rSCFV5 fusion protein (chain, as listed by the source): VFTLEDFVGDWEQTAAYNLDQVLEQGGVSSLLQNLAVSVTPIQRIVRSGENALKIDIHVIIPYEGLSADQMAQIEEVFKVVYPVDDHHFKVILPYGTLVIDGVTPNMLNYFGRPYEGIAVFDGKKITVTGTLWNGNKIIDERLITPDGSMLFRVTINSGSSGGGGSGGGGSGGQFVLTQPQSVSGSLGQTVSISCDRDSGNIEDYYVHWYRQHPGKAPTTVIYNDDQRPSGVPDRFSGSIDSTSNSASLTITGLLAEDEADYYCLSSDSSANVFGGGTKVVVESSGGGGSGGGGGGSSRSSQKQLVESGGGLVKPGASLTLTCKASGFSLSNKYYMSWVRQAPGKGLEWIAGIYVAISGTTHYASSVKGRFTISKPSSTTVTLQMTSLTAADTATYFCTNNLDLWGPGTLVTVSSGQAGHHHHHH
As to VSGWRIHEKIS (peptide, part only; not given: rSCFV18 scFv part, part only) [rSCFV18-small subunit mutant fusion protein RA120], the Signal-to-noise ratio at 1000 pg/ml was found to be 18, the normalised luminescence at PCT 0 pg/ml turned out to be 5000, the normalised luminescence at PCT 1.1 pg/ml came to 4900 and the normalised luminescence at PCT 3.3 pg/ml was found to be 5260. The same molecule displayed a normalised luminescence at PCT 10 pg/ml of 5860, a normalised luminescence at PCT 100 pg/ml of 13400, a normalised luminescence at PCT 1000 pg/ml of 90100 and a normalised luminescence at PCT 10000 pg/ml of 695000. Besides, the normalised luminescence at PCT 100000 pg/ml amounted to 2e+06.
On to VEGYRLFDKKW (peptide, part only; not given: rSCFV18 scFv part, part only) [rSCFV18-small subunit mutant fusion protein RB239], for which the Signal-to-noise ratio at 1000 pg/ml is 11.5, the normalised luminescence at PCT 0 pg/ml worked out at 5000, the normalised luminescence at PCT 1.1 pg/ml turned out to be 5530 and the normalised luminescence at PCT 3.3 pg/ml was 5620. This molecule also displayed a normalised luminescence at PCT 10 pg/ml of 5990, a normalised luminescence at PCT 100 pg/ml of 11000, a normalised luminescence at PCT 1000 pg/ml of 57600 and a normalised luminescence at PCT 10000 pg/ml of 466000. The molecule further showed a normalised luminescence at PCT 100000 pg/ml of 2.17e+06.

The target is the same in a further assay. As to the kind of experiment: cell-based or functional assay. The source holds these as a separate data set.
For VEGWRLFDRVS (peptide, part only; not given: rSCFV18 scFv part, part only) [rSCFV18-small subunit mutant fusion protein RC-237], the RLU, PCT+ worked out at 10800 RLU; the RLU, PCT- was 2190 RLU; the Signal-to-noise ratio was determined as 5.
As for VEGYRLFKREL (peptide, part only; not given: rSCFV18 scFv part, part only) [rSCFV18-small subunit mutant fusion protein RB152], the RLU, PCT+ is 37200 RLU; the RLU, PCT- was 906 RLU; the Signal-to-noise ratio turned out to be 40.
In the case of IEGYRLFDRKS (peptide, part only; not given: scFv part; template fusion not stated, part only) [small subunit mutant fusion protein RD-092], the complementary activity, luminescence at 3 min came out at 4900 RLU and the complementary activity, luminescence at 6 min turned out to be 4540 RLU.
As to VEGYRLFNRKW (peptide, part only; not given: rSCFV18 scFv part, part only) [rSCFV18-small subunit mutant fusion protein RB223], the RLU, PCT+ worked out at 39200 RLU; the RLU, PCT- worked out at 1100 RLU; the Signal-to-noise ratio turned out to be 34.7.
Take VSGYRIFEKKW (peptide, part only; not given: rSCFV18 scFv part, part only) [rSCFV18-small subunit mutant fusion protein RC-113]: the RLU, PCT+ stood at 6210 RLU; the RLU, PCT- was found to be 1180 RLU; the Signal-to-noise ratio was determined as 5.3.
For VEGYRLFDRKW (peptide, part only; not given: rSCFV18 scFv part, part only) [rSCFV18-small subunit mutant fusion protein RB186], the RLU, PCT+ stood at 27200 RLU; the RLU, PCT- was 590 RLU; the Signal-to-noise ratio stood at 45.1.
Regarding VDGYRLFEKVS (peptide, part only; not given: rSCFV18 scFv part, part only) [rSCFV18-small subunit mutant fusion protein RC-263], the RLU, PCT+ was 4770 RLU; the RLU, PCT- was found to be 685 RLU; the Signal-to-noise ratio stood at 7; the Signal-to-noise ratio at 1000 pg/ml was determined as 5.8. The molecule further yielded a normalised luminescence at PCT 0.0 pg/ml of 5000, a normalised luminescence at PCT 1 pg/ml of 5130, a normalised luminescence at PCT 3 pg/ml of 5230 and a normalised luminescence at PCT 10 pg/ml of 5190. For the same molecule, the normalised luminescence at PCT 30 pg/ml turned out to be 5650, the normalised luminescence at PCT 100 pg/ml is 7130, the normalised luminescence at PCT 1000 pg/ml was 28800 and the normalised luminescence at PCT 10000 pg/ml came out at 241000. Besides, the normalised luminescence at PCT 100000 pg/ml turned out to be 1.56e+06 and the normalised luminescence at PCT 250000 pg/ml turned out to be 2.23e+06.
In the case of VEGYRLFDRKS (peptide, part only; not given: rSCFV18 scFv part, part only) [rSCFV18-small subunit mutant fusion protein RC-218], the RLU, PCT+ was determined as 7240 RLU; the RLU, PCT- is 921 RLU; the Signal-to-noise ratio turned out to be 7.9; the Signal-to-noise ratio at 1000 pg/ml came to 6.3. The normalised luminescence at PCT 0.0 pg/ml is 5000, the normalised luminescence at PCT 1 pg/ml came to 4940, the normalised luminescence at PCT 3 pg/ml was 4980 and the normalised luminescence at PCT 10 pg/ml was found to be 5160. Moreover, the normalised luminescence at PCT 30 pg/ml was found to be 5700, the normalised luminescence at PCT 100 pg/ml turned out to be 7490, the normalised luminescence at PCT 1000 pg/ml amounted to 31600 and the normalised luminescence at PCT 10000 pg/ml worked out at 266000. The molecule also yielded a normalised luminescence at PCT 100000 pg/ml of 1.76e+06 and a normalised luminescence at PCT 250000 pg/ml of 2.44e+06.
Regarding VEGYRLFEKVS (peptide, part only; not given: rSCFV18 scFv part, part only) [rSCFV18-small subunit mutant fusion protein RC-042], the RLU, PCT+ worked out at 5770 RLU; the RLU, PCT- turned out to be 593 RLU; the Signal-to-noise ratio came out at 9.7.
In the case of VEGYRLFEKKL (peptide, part only; not given: rSCFV18 scFv part, part only) [rSCFV18-small subunit mutant fusion protein RB149], the RLU, PCT+ came out at 79100 RLU; the RLU, PCT- came out at 3590 RLU; the Signal-to-noise ratio was 21.
Turning to VSGYRLFDRKS (peptide, part only; not given: rSCFV18 scFv part, part only) [rSCFV18-small subunit mutant fusion protein RC-228], the RLU, PCT+ turned out to be 16300 RLU; the RLU, PCT- worked out at 3000 RLU; the Signal-to-noise ratio was 5.4.
With VEGYRLFERKS (peptide, part only; not given: rSCFV18 scFv part, part only) [rSCFV18-small subunit mutant fusion protein RC-145], the RLU, PCT+ was found to be 8200 RLU; the RLU, PCT- amounted to 808 RLU; the Signal-to-noise ratio was found to be 10.1.
Turning to VSGWRIFDKKS (peptide, part only; not given: rSCFV18 scFv part, part only) [rSCFV18-small subunit mutant fusion protein RC-124], the RLU, PCT+ is 9280 RLU; the RLU, PCT- was found to be 1230 RLU; the Signal-to-noise ratio was found to be 7.5.
VEGYRLFERVL (peptide, part only; not given: rSCFV18 scFv part, part only) [rSCFV18-small subunit mutant fusion protein RB150]: the RLU, PCT+ worked out at 53900 RLU; the RLU, PCT- was 1630 RLU; the Signal-to-noise ratio was 32.1.
Regarding VEGYRLFDRVW (peptide, part only; not given: rSCFV18 scFv part, part only) [rSCFV18-small subunit mutant fusion protein RB128], the RLU, PCT+ stood at 26200 RLU; the RLU, PCT- turned out to be 658 RLU; the Signal-to-noise ratio amounted to 38.8.
Molecule AEPYRIFDRKS (peptide, part only; not given: scFv part; template fusion not stated, part only) [small subunit mutant fusion protein RD-099] displayed a complementary activity, luminescence at 3 min of 221 RLU and a complementary activity, luminescence at 6 min of 52 RLU.
As for VEGYRIFEKKW (peptide, part only; not given: rSCFV18 scFv part, part only) [rSCFV18-small subunit mutant fusion protein RC-286], the RLU, PCT+ came out at 5000 RLU; the RLU, PCT- is 438 RLU; the Signal-to-noise ratio amounted to 11.4; the Signal-to-noise ratio at 1000 pg/ml is 5.5. The normalised luminescence at PCT 0.0 pg/ml was 5000, the normalised luminescence at PCT 1 pg/ml was 4670, the normalised luminescence at PCT 3 pg/ml was determined as 4640 and the normalised luminescence at PCT 10 pg/ml stood at 4830. This molecule gave a normalised luminescence at PCT 30 pg/ml of 5410, a normalised luminescence at PCT 100 pg/ml of 6700, a normalised luminescence at PCT 1000 pg/ml of 27600 and a normalised luminescence at PCT 10000 pg/ml of 236000. Moreover, the normalised luminescence at PCT 100000 pg/ml was 1.44e+06 and the normalised luminescence at PCT 250000 pg/ml came out at 2.01e+06.
Take VEGWRLFDRKS (peptide, part only; not given: rSCFV18 scFv part, part only) [rSCFV18-small subunit mutant fusion protein RC-232]: the RLU, PCT+ was 18300 RLU; the RLU, PCT- is 3180 RLU; the Signal-to-noise ratio worked out at 5.8.
On to VSGWRIHEKIS (peptide, part only; not given: rSCFV18 scFv part, part only) [rSCFV18-small subunit mutant fusion protein RA120], for which the RLU, PCT+ is 81100 RLU; the RLU, PCT- came to 2140 RLU; the Signal-to-noise ratio was determined as 36.9.
In the same order, the values of VEGYRLFEKVW (peptide, part only; not given: rSCFV18 scFv part, part only) [rSCFV18-small subunit mutant fusion protein RB172] are 41400 RLU, 1090 RLU and 36.9.
With VEGYRLFDKKW (peptide, part only; not given: rSCFV18 scFv part, part only) [rSCFV18-small subunit mutant fusion protein RB239], the RLU, PCT+ was 31900 RLU; the RLU, PCT- was 465 RLU; the Signal-to-noise ratio amounted to 67.7; the Signal-to-noise ratio at 1000 pg/ml was found to be 31.1. Further, the luminescence at PCT 0 pg/ml came out at 288, the luminescence at PCT 1.37 pg/ml amounted to 301, the luminescence at PCT 4.12 pg/ml is 332 and the luminescence at PCT 12.35 pg/ml came out at 407. The same molecule had a luminescence at PCT 37.04 pg/ml of 590, a luminescence at PCT 111.1 pg/ml of 1320, a luminescence at PCT 333.3 pg/ml of 3360 and a luminescence at PCT 1000 pg/ml of 8950.
AEGYRLFDRKS (peptide, part only; not given: scFv part; template fusion not stated, part only) [small subunit mutant fusion protein RD-086] registered a complementary activity, luminescence at 3 min of 3390 RLU and a complementary activity, luminescence at 6 min of 3220 RLU.
Take VEGYRLFNRVG (peptide, part only; not given: rSCFV18 scFv part, part only) [rSCFV18-small subunit mutant fusion protein RB122]: the RLU, PCT+ stood at 55400 RLU; the RLU, PCT- came to 2600 RLU; the Signal-to-noise ratio was 20.2.
Turning to VEGYRLHEKIS (peptide, part only; not given: rSCFV18 scFv part, part only) [rSCFV18-small subunit mutant fusion protein RA128], the RLU, PCT+ was 17900 RLU; the RLU, PCT- was 387 RLU; the Signal-to-noise ratio was determined as 45.2.
Turning to VEGYRLFNRVS (peptide, part only; not given: rSCFV18 scFv part, part only) [rSCFV18-small subunit mutant fusion protein RB027], the RLU, PCT+ is 102000 RLU; the RLU, PCT- was found to be 4320 RLU; the Signal-to-noise ratio worked out at 22.6.
On the same counts, the results for VSGYRIFEKKS (peptide, part only; not given: rSCFV18 scFv part, part only) [rSCFV18-small subunit mutant fusion protein RC-129] are 12000 RLU, 2070 RLU and 5.8.
As to VSGWRIFDRKS (peptide, part only; not given: rSCFV18 scFv part, part only) [rSCFV18-small subunit mutant fusion protein RC-041], the RLU, PCT+ worked out at 11800 RLU; the RLU, PCT- was 2500 RLU; the Signal-to-noise ratio was 4.7.
In the case of VSGYRLFDKKW (peptide, part only; not given: rSCFV18 scFv part, part only) [rSCFV18-small subunit mutant fusion protein RC-261], the RLU, PCT+ is 7220 RLU; the RLU, PCT- was 1620 RLU; the Signal-to-noise ratio was determined as 4.5.
On the same counts, the results for VNGWRIFDKKS (peptide, part only; not given: rSCFV18 scFv part, part only) [rSCFV18-small subunit mutant fusion protein RC-242] are 9040 RLU, 1520 RLU and 5.9.
In the same order, the values of VSGYRLFDRKW (peptide, part only; not given: rSCFV18 scFv part, part only) [rSCFV18-small subunit mutant fusion protein RC-033] are 8510 RLU, 820 RLU and 10.4.
For VSGYRIFDKKS (peptide, part only; not given: rSCFV18 scFv part, part only) [rSCFV18-small subunit mutant fusion protein RC-044], the RLU, PCT+ was determined as 10400 RLU; the RLU, PCT- amounted to 1300 RLU; the Signal-to-noise ratio was found to be 8.

The values are drawn from EP4700040A1, “PEPTIDE AND LUMINESCENT COMPLEX CONTAINING SAME” (Shenzhen Loggene Life Science & Technology Co., Ltd., priority 2023, dated 2024).
